Target: T1, long isoform of the mouse leptin receptor (Mus musculus, UniProt P48356)
T1 construct: expressed in transfected cells; host or cells: PC12 (rat pheochromocytoma), transient electroporation with pMET7-mLRlo
T1 sequence (P48356 22-1162): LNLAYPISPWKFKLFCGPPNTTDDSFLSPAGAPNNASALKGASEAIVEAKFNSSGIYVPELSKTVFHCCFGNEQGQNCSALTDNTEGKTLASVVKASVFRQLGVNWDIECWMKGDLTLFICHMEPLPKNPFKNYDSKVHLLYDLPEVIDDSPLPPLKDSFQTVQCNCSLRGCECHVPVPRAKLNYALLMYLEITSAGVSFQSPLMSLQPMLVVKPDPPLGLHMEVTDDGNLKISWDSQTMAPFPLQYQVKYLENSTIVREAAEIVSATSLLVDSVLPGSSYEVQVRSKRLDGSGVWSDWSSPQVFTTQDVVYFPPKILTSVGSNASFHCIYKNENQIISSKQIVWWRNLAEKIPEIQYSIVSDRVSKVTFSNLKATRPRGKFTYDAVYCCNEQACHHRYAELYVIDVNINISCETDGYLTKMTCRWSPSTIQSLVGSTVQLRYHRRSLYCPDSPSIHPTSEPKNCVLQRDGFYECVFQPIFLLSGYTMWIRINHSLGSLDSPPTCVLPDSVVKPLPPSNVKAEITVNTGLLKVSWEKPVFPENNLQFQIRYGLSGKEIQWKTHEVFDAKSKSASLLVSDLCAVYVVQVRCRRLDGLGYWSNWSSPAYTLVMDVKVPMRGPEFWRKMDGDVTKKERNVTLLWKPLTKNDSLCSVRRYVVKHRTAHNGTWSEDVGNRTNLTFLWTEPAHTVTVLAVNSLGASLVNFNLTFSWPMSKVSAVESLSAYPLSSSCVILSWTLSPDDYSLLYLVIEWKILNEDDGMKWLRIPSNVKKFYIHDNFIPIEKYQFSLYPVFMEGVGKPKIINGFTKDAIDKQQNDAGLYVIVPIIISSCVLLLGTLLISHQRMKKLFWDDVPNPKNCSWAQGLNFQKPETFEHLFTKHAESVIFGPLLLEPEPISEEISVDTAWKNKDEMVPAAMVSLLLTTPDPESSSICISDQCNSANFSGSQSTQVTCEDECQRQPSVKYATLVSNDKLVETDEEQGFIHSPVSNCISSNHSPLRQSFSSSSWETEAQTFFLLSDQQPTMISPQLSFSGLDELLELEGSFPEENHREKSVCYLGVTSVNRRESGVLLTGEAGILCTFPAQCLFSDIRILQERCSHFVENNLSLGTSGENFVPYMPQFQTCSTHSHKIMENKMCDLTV
Assay: rNPY promoter luciferase reporter in PC12 cells transiently transfected with pMET7-mLRlo
Assay type: cell-based
Protocol: FIG. 1A. Leptin-induced NPY promoter activity in transiently transfected PC12 cells. PC12 cells were co-transfected with control vector (columns 1 and 2), pMET7-mLRsh (columns 3 and 4) or pMET7-mLRlo (columns 5 and 6) together with the pGL3-rNPYluc reporter. The different subcultures were mock stimulated (growth medium alone) or treated with mouse leptin (100 ng/ml) for 72 hours. Luciferase activity in cell lysates is shown; data represent the mean±standard deviation values of assays performed in triplicate.
FIG. 1B. Forskolin co-stimulation on leptin-induced pGL3-rNPY luciferase activity. PC12 cells were transiently co-transfected with pMET7-mLRlo and the pGL3-rNPYluc reporter. […]
In order to study leptin receptor signaling in a neuro-endocrine-related cell type, we transiently transfected PC12 cells with expression vectors for the long or the short isoform of the mouse leptin receptor (pMET7-mLRlo and pMET7-mLRsh respectively) and monitored gene induction by leptin. […]
Luciferase activity was measured in transfected cells by chemiluminescence. […] 70 μl of luciferase substrate buffer (20 mM Tricine; 1.07 mM (MgCO3)4Mg(OH)25H2O; 2.67 mM MgSO4; 0.1 mM EDTA; 33.3 mM DTT; 270 μM Coenzyme A (lithium salt); 470 μM Luciferin (Duchefa); 530 μM ATP, final pH 7.8) was added to 100 μl of cell lysate and measured for 5 seconds by TopCount.NXT Chemiluminescence Counter (Packard).

B1: leptin: mouse leptin (R&D Systems), ob gene product, used on PC12 cells at 100 ng/ml (protein)
chain: VPIQKVQDDTKTLIKTIVTRINDISHTQSVSAKQRVTGLDFIPGLHPILSLSKMDQTLAVYQQVLTSLPSQNVLQIANDLENLRDLLHLLAFSKSCSLPQTSGLQKPESLDGVLEASLYSTEVVALSRLQGSLQDILQQLDVSPEC
PC12 cells co-transfected with pGL3-rNPYluc and pMET7-mLRlo, leptin alone
  luciferase activity, rNPY reporter: moderate stimulation
Leptin plus forskolin, rNPY luciferase
  optimal co-stimulatory concentration: 100 ng/mL

Reference: patent publication US7291458B2, “Leptin-mediated gene-induction” (Vlaams Interuniversitair Instituut Voor Biotechnologie VZW, priority 1998, dated 2007)
